The nanobody polyreactivity screen of Harvey et al. (2022)

Test: yeast display, Sf9 membrane polyspecificity reagent, FACS + sequencing; frameworks hold sequencing errors
Outline: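 Genes from sorted yeast were amplified by colony PCR, read by MiSeq 2 × 250 sequencing and filtered on CDR length. These cells carried a synthetic nanobody library in Saccharomyces cerevisiae BJ5465 and were sorted by FACS into low and high (top ~1%) gates on anti-HA and streptavidin fluorescence. Polyreactivity is labelled according to the gate of origin.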

QVQLVETGGGLVQAGGSLRLSCAASGRIFRFYDMGWYRQAPGQERELVATINPTGGSTSYADSVKGRFTISRDNAKNTVYLQMNSLNPEDTAVYYCAADSWYSVRKTWSRSGSFPFDYWGQGTQVTVSS
polyreactivity (PSR sort gate): high polyreactivity

QVQLVESGGGLVQAGGSLRLSCAASGSTFNFYAMGWARQAPGKERELVAAIRQSSGRTYYADSVKGRFTISRDNAKNTVYLQMNSLKPEDTAVYYCNARVPRYNGGSTMEYWGQGTQVTVSS
polyreactivity (PSR sort gate): high polyreactivity

QVQLVESGGGLVQAGGSLRLSCAASGSIYDYNAMGWYRQAPGKERELVAAISASGGSTYYADSVKGRFTISRDNAKNTVYLQMNSLKPEDTAVYYCAAGYWSYWSLRMDYWGQGTQVTVSS
polyreactivity (PSR sort gate): high polyreactivity

QVQLVESGGGLVQAGGSLRLSCAASGYIFKYYAMGWYRQAPGKERELVAAISRSGDSTYYADSVKGRFTISRDNAKNTVYLQMNSLKPEATAVYYCKARYWHGPTGSDYWGQGTQVTVSS
polyreactivity (PSR sort gate): high polyreactivity

QVQLVESGGGLVQAGGSLRLSCAASGRTLATYAMGWYRQAPGKERELVADISWRGGTTYYADSVKGRFTISRDNAKNTVYLQMNSLKPEDTAVYYCAAVRKQGSGFDYWGQGTQVTLSS
polyreactivity (PSR sort gate): high polyreactivity

QVQLVESGGGLVQAGGSLRLSCAASGRTFGTNTMGWYRQAPGKVRELVATISSSSGSTYYADSVKGRFTISRDNAKNTVYFQMNSLKPEDTAVYYCAALCRWRYKRYDYWGQGTQVTVSS
polyreactivity (PSR sort gate): high polyreactivity

QVQLVESGGGLVQAGGSLRLSCAASGGTFGRYAMGWYRQAPGKERELVADINWSGGGTYYADSVKGRFTISRDNAKNTVYLQMNSLKPEDTAVYYCGARVVEIFHWAGDYWGQGTQVTVSS
polyreactivity (PSR sort gate): low polyreactivity

QVQLVESGGGLVQAGGSLRLSCAASGSTFQYNVMGWYRQAPGKERELVAAISRSGTRTSYADSVKGRFTISRDYAKNTVYLQMNTLKPEDTAVYYCAAVVYHRYYSGYYYWGQGTQVTVST
polyreactivity (PSR sort gate): high polyreactivity

QVQLVESGGGLVQAGGSLRLSCAASGRIFGVYAMGWYRQAPGKERELVADISWSGSGTYADSVKGRFTISRDNAKNTVYLQMNSLKPEDTAVYYCNVDPAQIHSGYVGYDYWGQGTQVTVSS
polyreactivity (PSR sort gate): low polyreactivity

QVQHVESGGGLVQAGGSLRLSCAASGRIFIVNAMGWYRQAPGKERELVAAISYRGGSTYYADSVKGRFTISRDNAKNTVYLQMNSLKPEDTAVYYCAADRYSYLGYPYEYEYWGQGTQVTVSS
polyreactivity (PSR sort gate): low polyreactivity

QVQLVESGGGLVQAGGSLRLSCAASGRTLKYNAKGGNRQAPGKARELVAALTNSGTRTYYADSVKGRFTISRDNAKNTVYLQMNSQKPEDTAVYYCAKDSYPYLRVGHLKYRVKTYGHWGQGTQVTVSS
polyreactivity (PSR sort gate): high polyreactivity

QVQLVESGGGLVQAGGSLRLSCAASGRTFYTYVMGWYRQAPGKEREFVAAITYSGGSTYYADSVKGRFTISRDNAKNTVYLQMNSLKPEDTAVYYCNDEWTYSEWYGQYLEFDYWGQGTQVTVSS
polyreactivity (PSR sort gate): high polyreactivity

QVQLQESGVRLVQAGGSLRLSCAASGPISRRSTMGWYRQAPGKERELVTAITRGTNTNYADSVKGRFTISRDNAKNTEYLQMNSLKPEDTAVYYCAAYGVLKPSRGDAVFHRYWGQGTQVTVSS
polyreactivity (PSR sort gate): low polyreactivity

QVQLVESGGGLVQAGGSLRLSCAASGSTSTQYAMGWYRQAPGKERELVAGITQSGGSTYYADSVKGRFTISRDNAKNTVYLQMNSLKPEDTAVYYCAAPPGYTGRYDYYYWGQGTQVTVSS
polyreactivity (PSR sort gate): high polyreactivity

QFQLVESGGGLVQAGGSLRLSCAASGSTFYPNSMGWYRQAPGKEMELVAAISSGGSTSYADSVKGRFTISRDNAKNTVYLQMNSLKPEDTAVYYCNASSPGAVPVYDYDYWGQGTQVTVSS
polyreactivity (PSR sort gate): low polyreactivity

QVQLVESGGGLVQAGGSLRLSCAASGFTFYRYAMGWYRQAPGKERELVAAISRTGGSTYYADSVKGRFTISRDNAKNTVYLQMNSLKPEDTAVYYCAAERKARTSWYGAASRYYYWGQGTQVTVSS
polyreactivity (PSR sort gate): high polyreactivity

QLQLVESGRGLVQAGGSLRLRCAASGRTFNRYTMGGYRQAPGKERELVAAISRGAGTNYADSVKGRFTISRDNAKYTVYLQMKSLKPEDTAVYYCAAGYEIGYRTGRSGNTAHIYYWGQGTQVTVSS
polyreactivity (PSR sort gate): high polyreactivity

QVQLVDSGGGLVQAGGSLRLSWAASGITFYTYTMGWYRQAPGKERELVAAISRRGGGTYYADSVKGRFTISRDNGKNTVYFQMNILKTEVTAVYYCAKDWYGRYYYWGQGTEVTVSS
polyreactivity (PSR sort gate): high polyreactivity

QVQLVESGGGLVQAGGSLRLSCAASGFTFYGNAMGWYRQAPGKERELVAAISGRGGSTYYADSVKGRFTISRDNAKNTVYLQMNSLKPEVTAVYYCAIYVSWPLYYYWGQGTQVTVSS
polyreactivity (PSR sort gate): low polyreactivity

QVQLVESGGGLVQAGGSLRLSCAASGSTFRYYAMGWYRQAPGKERELVAAISRSGGSTSYADSVKGRFTISRDNAKNTVYLQMNSLKPEDTAVYSCAARIYRKYYRYDYWGQGTQVTVSS
polyreactivity (PSR sort gate): high polyreactivity

QVQLVESGGGLVQAGGSLRLSCAASGSTFTGYTMGWYRQAPGKERELVAAITYRGGSTYYADSVKGRFTISRDNAKNTVYLQMNSLKPEDSAVYYCAAVAVYYEYSPYDYWGQGTQLTVSS
polyreactivity (PSR sort gate): low polyreactivity

QVQLVESGGGLVQAGGSLRLSCAASGRTFGYYGMGWYRQAPGKERELVAAITGSGGSTYYADSVKGRFTISRDNAKNTVYLQMNSLKPEDTAVYYCGATDLSRWTLYDYCGQGTQVTVSS
polyreactivity (PSR sort gate): high polyreactivity

QVQLVESGGGSVQAGGSLRLSCAASGRTFYGYAMGWYRQAPGKERELGASISRDGSTNYADSVKGRFTISRDNAKNTVYLQMTSLKPEDTAVYYCAADIWYYRYPIYYYSYDYWGQGTQVNVSS
polyreactivity (PSR sort gate): low polyreactivity

QVQLVESGGGLVQAGGSLRLSCAASGLIFYYNAMGWYRQAPGKERELVAAISSDGTTDYADSVKGRFTISRDNAKNTVYLQMNSLKPEDTAVYYCNADKAVKLSGYGRADYDYWGQGTQVTVSS
polyreactivity (PSR sort gate): low polyreactivity

QVQLVESGGGLVQAGGSLRLSCAATGGTIYYYAMGWYRQAPGKERELVAAISTSGTSTYYADSVKGRFTISRDNAKNTVYLQMNSLKPEDTAVYYCAARGLRVSSRGYYWGQGTQVTVSS
polyreactivity (PSR sort gate): high polyreactivity

QDQLVESGGGLVQAGGSLRLSCAASGLTFGYYAMGWYRQAPGKERELVAAINSGGSTYYADSVKGRFTISRDNAKNTVYFQMNSLKPEDTAVYYCNATLDLYDSVSYTGPGMDYWGQGTQVTVSS
polyreactivity (PSR sort gate): low polyreactivity

QVQLVESGGGLVQAGGSLRLSCAASGSTYDYNAMGWYIQAPGKERELDAAINSGASTYYGDSVKGRFTISRDNEKNSVYLQMNSMKPEDTAVYYCAKDYPYIGDYWGQCTQVTVSS
polyreactivity (PSR sort gate): low polyreactivity

QVQLVESGGGLVQAGGSLRLSCAASGITFGDNDMGWYRQAPGKDRELVASISSGGSTTYADSVKGRFTISRDNAKNTVYLQMNSLKPEDTADYYCNADYGSSVEYNYWGQGTQVTVSS
polyreactivity (PSR sort gate): low polyreactivity

QVQLVESGGGLVQAGGSLRLICAASGFTFYKYTMGWYRQAPGKERELVAAISARGGSTYYADSVKGRFTISRDNAKNTVYLQMNSLKPEDTAVYYCAADYWRTYGLGYDYWGQGTQVTVSS
polyreactivity (PSR sort gate): high polyreactivity

QVQLVESGGGLVQAGGSLRLSCAASGRIFQYNAMGWYRQAPGKESELVAAIRRGGGSTYYADSVKGRFTISRDNAKNTVYLQMNSLKPEDTAVYYCAARRKRVSFYPEYDYWGQGTQVTVSS
polyreactivity (PSR sort gate): low polyreactivity

QVQLVESGGGLVQAGGSLRLTCAASGSTFSGYAMGWYRQAPGKERELVATISGGGSTYYADSVKGRFTISRDNAKNTVYLQMNILKPEDTAVYYCNAQGYGIFTSSLDYWGQGTQVTVSS
polyreactivity (PSR sort gate): low polyreactivity

QVQLVESGGGLVQAGGSLRLSCAASGITFSGYGMGWYRQAPGKERELVAAISRSGGSTYYADSVKGRFTISRDNAKNTVYLQMNSLKPEDTAVYYCATASRTSRTGWAGYYWGQGTQVTVSS
polyreactivity (PSR sort gate): high polyreactivity

QVQLVESGGGLVQAGGSLRLSCASSGFTFPFYAMGWYRQAPGKESELVAAISWSGGSTYYADSVKGRFTISRDNAKNTVYLQMNSLKPEDTAVYYCAAEYISSPLGYDYWGQGTQVTVSS
polyreactivity (PSR sort gate): high polyreactivity

QDQLVESGGGLVQAGGSLRLSCAASGSTFSWYTMGWYRQAPGKERELVAAISKRGGSTYYADSVKGRFTISRDNAKNTVYLQMNSLKPEDTAVYYCNKDDERGKLYYWGQGTQVTVSS
polyreactivity (PSR sort gate): high polyreactivity

QVQLVESGGGLVQAGGSLRLSCAASGSTFGNNAMGWYRPAPGKERELVAGIRRSSNTYYADSVKGRFTISRDNAKNTVYLQMNSLKPEDTAVYCCNADNILYGSTLDYWGQGTQVTVSS
polyreactivity (PSR sort gate): low polyreactivity

QVQLVESGGGLVQAGGSLRLSCAASGRIFPSYAMGWYRQAPGKERELVAAISDSDGSTYYADSVKGRFTISRDNAKNTVYLQMNSLKPEDTAVYYCAAEGSYPAYDYWGQGTQVTVSS
polyreactivity (PSR sort gate): low polyreactivity

QVQLEESGGGLVQAGGSLSLSCAASGSSLDTYVMGWYRQAPGKEREVVAAISSDTSTNYADSVKGRFTISRDNAKNTVYLQMNSLNPEDTAVYYCAAVGSYYGWYQGFDYWGQGTLVTVSS
polyreactivity (PSR sort gate): low polyreactivity

QVQLVESGGGLVQAGGSLRLSCAASGSIFYFNAMGWYRQAPGKERELVARISGSSGRTYFADSVKGRFTISRDNAKNTVYLQMNSLKPEDTAVYYCAARYYTSATMDYWGQGTQVTVSS
polyreactivity (PSR sort gate): high polyreactivity

QVQLVESGGGLVQAGGSLRLSCAASGSTFGWNAMGWYRQAPGKERELVAAISSSGGITYYADSVKGRFTISRDNAKNTVYLQMNSLKPEDTAVYYCAAERDDDWVNYWGQGTQVTVSS
polyreactivity (PSR sort gate): low polyreactivity

QVQLVESGGRLVQAGRSLRLSCAASGFTFYDYAMVWYRQEPGKERELVARINGGGGTNYADSVKGRFTNSRDNAKNTVYLQMNSLKPEDTAVYYCAAEFGSRPPYDYWGQGTQVTVSS
polyreactivity (PSR sort gate): low polyreactivity

QVQLVESGGGLVQAGGSLRLSCAASGSTFTTYAMRWYRQAPGKERELLAAITRGGGRTYYSDSVKGRFTISRDYAKNTVYLLMNSLKPEDTAVYYCNAGRSNSPCGRPYDYWGQGTQVTVSS
polyreactivity (PSR sort gate): high polyreactivity

QVQVVESGGGLVQAGGSLRLSCAASGRTFRDNAMGWYRQAPGNERELVAAISRSGGRTYYADSVKGRCTISRDNAKNTVYLQMNSLKPEDTAVYYCAAYYYTAGDSSARYDYWGQGTQVTVSS
polyreactivity (PSR sort gate): high polyreactivity

QVQLVESGGGLVQAGGSLRLSCAASGSTSCIYAMGCYRQAPGKERELVAAISGSGVSTYYADSVKGRFTISRDNAKNTVYLQMNSLKPEDTAVYYCAAGYYGNGVFEYDYWGQGTQVTVSS
polyreactivity (PSR sort gate): low polyreactivity
